Source: patent US20250263489A1 (TEIJIN PHARMA, published 2025)
Like-named read-outs stand apart in the source and are kept apart here.

How the values were obtained:
Assay in all cases: cell-based or functional assay
[1] = target: T1, IGF-1 receptor on the cells of the PathHunter IGF1R Functional Assay (DiscoverX) (UniProt P08069 31-1367)
[2] = target: T1, IGF-1 receptor on the cells of the …; remark: listed apart in the source
[3] = target: T1, IGF-1 receptor on the cells of the …; remark: listed apart in the source
[4] = target: T1, IGF-1 receptor on the cells of the …; remark: listed apart in the source
[5] = target: T1, IGF-1 receptor on the cells of the …; remark: listed apart in the source

T1 sequence (P08069 31-1367): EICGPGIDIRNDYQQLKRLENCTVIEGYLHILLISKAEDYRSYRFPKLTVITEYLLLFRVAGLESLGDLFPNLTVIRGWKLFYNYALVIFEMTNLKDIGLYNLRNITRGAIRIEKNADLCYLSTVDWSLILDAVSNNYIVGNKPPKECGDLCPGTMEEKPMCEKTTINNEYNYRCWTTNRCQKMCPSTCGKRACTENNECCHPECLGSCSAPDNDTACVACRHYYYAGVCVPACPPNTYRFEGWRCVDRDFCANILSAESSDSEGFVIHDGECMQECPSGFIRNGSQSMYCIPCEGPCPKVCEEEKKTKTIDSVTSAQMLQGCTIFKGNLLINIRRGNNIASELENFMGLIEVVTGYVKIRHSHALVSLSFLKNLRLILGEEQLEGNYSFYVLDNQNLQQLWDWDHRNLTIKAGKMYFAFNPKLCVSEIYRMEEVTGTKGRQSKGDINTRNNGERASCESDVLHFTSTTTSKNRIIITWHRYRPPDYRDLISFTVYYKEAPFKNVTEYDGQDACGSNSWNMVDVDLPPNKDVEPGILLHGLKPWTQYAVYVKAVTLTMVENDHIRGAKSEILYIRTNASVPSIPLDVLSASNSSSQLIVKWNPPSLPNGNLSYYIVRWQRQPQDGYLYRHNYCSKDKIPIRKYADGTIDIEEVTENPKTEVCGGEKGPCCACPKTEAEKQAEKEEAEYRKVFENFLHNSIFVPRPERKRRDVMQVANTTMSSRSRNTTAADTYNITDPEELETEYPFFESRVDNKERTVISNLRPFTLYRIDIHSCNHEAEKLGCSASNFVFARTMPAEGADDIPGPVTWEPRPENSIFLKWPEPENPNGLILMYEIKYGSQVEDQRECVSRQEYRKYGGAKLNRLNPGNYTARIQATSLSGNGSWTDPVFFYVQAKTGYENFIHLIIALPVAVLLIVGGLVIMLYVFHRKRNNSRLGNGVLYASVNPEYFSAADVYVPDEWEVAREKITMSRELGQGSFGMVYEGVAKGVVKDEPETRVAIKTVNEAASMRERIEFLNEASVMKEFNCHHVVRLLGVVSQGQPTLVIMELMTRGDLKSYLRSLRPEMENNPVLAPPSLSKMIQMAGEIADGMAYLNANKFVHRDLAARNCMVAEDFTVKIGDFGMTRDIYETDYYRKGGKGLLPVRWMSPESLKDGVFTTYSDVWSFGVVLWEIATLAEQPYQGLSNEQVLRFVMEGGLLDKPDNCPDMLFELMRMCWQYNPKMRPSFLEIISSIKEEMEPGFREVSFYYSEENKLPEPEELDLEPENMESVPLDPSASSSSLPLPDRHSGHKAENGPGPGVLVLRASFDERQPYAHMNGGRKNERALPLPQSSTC

B1: FW1_var1 antibody (antibody, V domains shown)
VH: QVQLVQSGAEVKKPGASVKVSCKASGYTFTSYWMHWVRQAPGQGLEWMGETNPSNSVTNYAQKFQGRVTLTVDTSTSTAYMELSSLRSEDTAVYYCTIGRGRGFAYWGQGTLVTVSS
VL: DIQMTQSPSSVSASVGDRVTITCRASQNINFWLSWCQQKPGKIPKLLIYKASNLHTGVPSRFSGSGSGTDFTLTISSLQPEDFATYYCLQGQSYPYTFGGGTKLEIK
For B1, the “Activation intensity (RLU), PathHunter” value [1] was 1600 RLU, the “Fluorescence intensity (0.1 nM) (RLU), PathHunter” value (from here on “Fluorescence intensity (0.1 nM)”) [1] was 555 RLU and the “Fluorescence intensity (12.5 nM) (RLU), PathHunter” value (shortened to “Fluorescence intensity (12.5 nM)”) [1] was 2160 RLU. The “Ratio of activation intensity, PathHunter” value [1] was 0.74 relative to IGF11-16, the “Signal intensity ratio (compared to IGF11-16) at 16.7 nM, PathHunter” value (“Signal intensity ratio” for short) [2] was 0.66 ratio to IGF11-16 and the “Activation intensity (RLU), PathHunter” value [3] was 2270 RLU. The “Fluorescence intensity (0.1 nM)” value [3] was 209 RLU, the “Fluorescence intensity (12.5 nM)” value [3] was 2480 RLU and the “Ratio of activation intensity, PathHunter” value [3] was 0.64 relative to IGF11-16.

B2: FW1_var9-hH1a (antibody, V domains shown)
VH: QIQLVQSGAEVKKPGASVKVSCKASGYTFTSYWMHWVRQAPGQGLEWMGETNPSNSVTNYAQKFQGRVTLTVDTSTSTAYMELSSLRSEDTAVYYCTIGRGRGFAYWGQGTLVTVSS
VL: DIQMTQSPSSVSASVGDRVTITCRASQNINFWLSWYQQKPGKAPKLLIYKASNLHTGVPSRFSGSGSGTDFTLTISSLQPEDFATYYCLQGQSYPYTFGGGTKLEIK
In the case of B2, the “Signal intensity ratio” value [2] is reported as 0.7 ratio to IGF11-16.

B3: FW1_var9-hH2a (antibody, V domains shown)
VH: QVQLQQSGAEVKKPGASVKVSCKASGYTFTSYWMHWVRQAPGQGLEWMGETNPSNSVTNYAQKFQGRVTLTVDTSTSTAYMELSSLRSEDTAVYYCTIGRGRGFAYWGQGTLVTVSS
VL: DIQMTQSPSSVSASVGDRVTITCRASQNINFWLSWYQQKPGKAPKLLIYKASNLHTGVPSRFSGSGSGTDFTLTISSLQPEDFATYYCLQGQSYPYTFGGGTKLEIK
B3 was tested, and the “Signal intensity ratio” value [2] was 0.54 ratio to IGF11-16.

B4: FW1_var9-hH4a (antibody, V domains shown)
VH: QVQLVQSGAELKKPGASVKVSCKASGYTFTSYWMHWVRQAPGQGLEWMGETNPSNSVTNYAQKFQGRVTLTVDTSTSTAYMELSSLRSEDTAVYYCTIGRGRGFAYWGQGTLVTVSS
VL: DIQMTQSPSSVSASVGDRVTITCRASQNINFWLSWYQQKPGKAPKLLIYKASNLHTGVPSRFSGSGSGTDFTLTISSLQPEDFATYYCLQGQSYPYTFGGGTKLEIK
With B4 the “Signal intensity ratio” value [2] was 0.65 ratio to IGF11-16.

B5: FW1-var9-mFR-L2 + L3 (antibody, V domains shown)
VH: QVQLVQSGAEVKKPGASVKVSCKASGYTFTSYWMHWVRQAPGQGLEWMGETNPSNSVTNYAQKFQGRVTLTVDTSTSTAYMELSSLRSEDTAVYYCTIGRGRGFAYWGQGTLVTVSS
VL: DIQMTQSPSSVSASVGDRVTITCRASQNINFWLSWYQQKPGNIPKLLIYKASNLHTGVPSRFSGSGSGTDFTLTISSLQPEDIATYYCLQGQSYPYTFGGGTKLEIK
For B5, the “Signal intensity (ratio to IGF11-16) at 16.7 nM, PathHunter” value [4] was 0.5 ratio to human chimeric IGF11-16.

B6: FW1-var9-mFR-H1 (antibody, V domains shown)
VH: QIQLQQPGAELVKPGASVKLSCKAPGYTFTSYWMHWVRQAPGQGLEWMGETNPSNSVTNYAQKFQGRVTLTVDTSTSTAYMELSSLRSEDTAVYYCTIGRGRGFAYWGQGTLVTVSS
VL: DIQMTQSPSSVSASVGDRVTITCRASQNINFWLSWYQQKPGKAPKLLIYKASNLHTGVPSRFSGSGSGTDFTLTISSLQPEDFATYYCLQGQSYPYTFGGGTKLEIK
B6 was tested, and the “Signal intensity (ratio to IGF11-16) at 16.7 nM, PathHunter” value [4] was 1.08 ratio to human chimeric IGF11-16.

B7: FW1_var9-hH6a (antibody, V domains shown)
VH: QVQLVQSGAEVKKPGASVKLSCKASGYTFTSYWMHWVRQAPGQGLEWMGETNPSNSVTNYAQKFQGRVTLTVDTSTSTAYMELSSLRSEDTAVYYCTIGRGRGFAYWGQGTLVTVSS
VL: DIQMTQSPSSVSASVGDRVTITCRASQNINFWLSWYQQKPGKAPKLLIYKASNLHTGVPSRFSGSGSGTDFTLTISSLQPEDFATYYCLQGQSYPYTFGGGTKLEIK
B7 was tested, and the “Signal intensity ratio” value [2] was 0.55 ratio to IGF11-16.

B8: FW1-var9-mFR-L1 (antibody, V domains shown)
VH: QVQLVQSGAEVKKPGASVKVSCKASGYTFTSYWMHWVRQAPGQGLEWMGETNPSNSVTNYAQKFQGRVTLTVDTSTSTAYMELSSLRSEDTAVYYCTIGRGRGFAYWGQGTLVTVSS
VL: DIQMNQSPSSLSASLGDTITITCRASQNINFWLSWYQQKPGKAPKLLIYKASNLHTGVPSRFSGSGSGTDFTLTISSLQPEDFATYYCLQGQSYPYTFGGGTKLEIK
B8 was tested, and the “Signal intensity (ratio to IGF11-16) at 16.7 nM, PathHunter” value [4] was 0.51 ratio to human chimeric IGF11-16.

B9: FW1_var9-hH3a (antibody, V domains shown)
VH: QVQLVQPGAEVKKPGASVKVSCKASGYTFTSYWMHWVRQAPGQGLEWMGETNPSNSVTNYAQKFQGRVTLTVDTSTSTAYMELSSLRSEDTAVYYCTIGRGRGFAYWGQGTLVTVSS
VL: DIQMTQSPSSVSASVGDRVTITCRASQNINFWLSWYQQKPGKAPKLLIYKASNLHTGVPSRFSGSGSGTDFTLTISSLQPEDFATYYCLQGQSYPYTFGGGTKLEIK
In the case of B9, the “Signal intensity ratio” value [2] is reported as 0.6 ratio to IGF11-16.

B10: FW1-var9-mFR-H3 (antibody, V domains shown)
VH: QVQLVQSGAEVKKPGASVKVSCKASGYTFTSYWMHWVRQAPGQGLEWMGETNPSNSVTNYAQKFQGRVTLTVDKSSSTAYMQLSSLTSEDSAVYYCTIGRGRGFAYWGQGTLVTVSA
VL: DIQMTQSPSSVSASVGDRVTITCRASQNINFWLSWYQQKPGKAPKLLIYKASNLHTGVPSRFSGSGSGTDFTLTISSLQPEDFATYYCLQGQSYPYTFGGGTKLEIK
With B10 the “Signal intensity (ratio to IGF11-16) at 16.7 nM, PathHunter” value [4] was 0.7 ratio to human chimeric IGF11-16.

B11: FW1-var9-mFR-H2 (antibody, V domains shown)
VH: QVQLVQSGAEVKKPGASVKVSCKASGYTFTSYWMHWVKQRPGQGLEWIGETNPSNSVTNYAQKFQGRVTLTVDTSTSTAYMELSSLRSEDTAVYYCTIGRGRGFAYWGQGTLVTVSS
VL: DIQMTQSPSSVSASVGDRVTITCRASQNINFWLSWYQQKPGKAPKLLIYKASNLHTGVPSRFSGSGSGTDFTLTISSLQPEDFATYYCLQGQSYPYTFGGGTKLEIK
In the case of B11, the “Signal intensity (ratio to IGF11-16) at 16.7 nM, PathHunter” value [4] is reported as 0.51 ratio to human chimeric IGF11-16.

B12: FW1_var9-hH7a (antibody, V domains shown)
VH: QVQLVQSGAEVKKPGASVKVSCKAPGYTFTSYWMHWVRQAPGQGLEWMGETNPSNSVTNYAQKFQGRVTLTVDTSTSTAYMELSSLRSEDTAVYYCTIGRGRGFAYWGQGTLVTVSS
VL: DIQMTQSPSSVSASVGDRVTITCRASQNINFWLSWYQQKPGKAPKLLIYKASNLHTGVPSRFSGSGSGTDFTLTISSLQPEDFATYYCLQGQSYPYTFGGGTKLEIK
With B12 the “Signal intensity ratio” value [2] was 1.09 ratio to IGF11-16.

B13: FW1_var9-hH5a (antibody, V domains shown)
VH: QVQLVQSGAEVVKPGASVKVSCKASGYTFTSYWMHWVRQAPGQGLEWMGETNPSNSVTNYAQKFQGRVTLTVDTSTSTAYMELSSLRSEDTAVYYCTIGRGRGFAYWGQGTLVTVSS
VL: DIQMTQSPSSVSASVGDRVTITCRASQNINFWLSWYQQKPGKAPKLLIYKASNLHTGVPSRFSGSGSGTDFTLTISSLQPEDFATYYCLQGQSYPYTFGGGTKLEIK
In the case of B13, the “Signal intensity ratio” value [2] is reported as 0.56 ratio to IGF11-16.

B14: FW1_var10_NEKS (antibody, human IgG4, V domains shown)
VH: QVQLVQSGAEVKKPGASVKVSCKASGYTFTSYWMHWVRQAPGQGLEWMGETNPSNSVTNYNEKFKSRVTLTVDTSTSTAYMELSSLRSEDTATYYCTIGRGRGFAYWGQGTLVTVSS
VL: DIQMTQSPSSVSASVGDRVTITCRASQNINFWLSWYQQKPGKAPKLLIYKASNLHTGVPSRFSGSGSGTDFTLTISSLQPEDFATYYCLQGQSYPYTFGGGTKLEIK
With B14 the “Activation intensity (RLU), PathHunter” value [3] was 1960 RLU, the “Fluorescence intensity (0.1 nM)” value [3] was 223 RLU and the “Fluorescence intensity (12.5 nM)” value [3] was 2190 RLU. The “Ratio of activation intensity, PathHunter” value [3] was 0.55 relative to IGF11-16.

B15: FW1_var14_NEKS (antibody, human IgG4, V domains shown)
VH: QVQLVQSGAEVKKPGASVKVSCKASGYTFTSYWMHWVRQAPGQGLEWMGETNPSNSVTNYNEKFKSRVTLTVDTSTSTAYMELSSLRSEDTATYYCTIGRGRGFAYWGQGTLVTVSS
VL: DIQMTQSPSSVSASVGDRVTITCRASQNINFWLSWYQQKPGKAPRLLIYKASNLHTGVPSRFSGSGSGTDFTLTISSLQPEDFATYYCLQGQSYPYTFGGGTKLEIK
B15 was tested, and the “Activation intensity (RLU), PathHunter” value [3] was 1740 RLU, the “Fluorescence intensity (0.1 nM)” value [3] was 221 RLU and the “Fluorescence intensity (12.5 nM)” value [3] was 1960 RLU. For the same binder, the “Ratio of activation intensity, PathHunter” value [3] was 0.49 relative to IGF11-16.

B16: mouse parent antibody IGF11-16 (antibody, mouse IgG1, kappa, V domains shown)
VH: QIQLQQPGAELVKPGASVKLSCKAPGYTFTSYWMHWVKQRPGQGLEWIGETNPSNSVTNYNEKFKSKATLTVDKSSSTAYMQLSSLTSEDSAVYYCTIGRGRGFAYWGQGTLVTVSA
VL: DIQMNQSPSSLSASLGDTITITCRASQNINFWLSWCQQKPGNIPKLLIYKASNLHTGVPSRFSGSGSGTDFTLTISSLQPEDIATYYCLQGQSYPYTFGGGTKLEIKR
For B16, the “Activation intensity (RLU), PathHunter” value [1] was 2180 RLU, the “Fluorescence intensity (0.1 nM)” value [1] was 557 RLU and the “Fluorescence intensity (12.5 nM)” value [1] was 2730 RLU. The “Ratio of activation intensity, PathHunter” value [1] was 1 relative to IGF11-16, the “Signal intensity ratio” value [2] was 1 ratio to IGF11-16 and the “Activation intensity (RLU), PathHunter” value [3] was 3570 RLU. The “Fluorescence intensity (0.1 nM)” value [3] was 230 RLU, the “Fluorescence intensity (12.5 nM)” value [3] was 3800 RLU and the “Ratio of activation intensity, PathHunter” value [3] was 1 relative to IGF11-16.

B17: IGF11-16 with alanine substitution of W at position 32 (CDR-L1) (antibody, V domains shown)
VH: QIQLQQPGAELVKPGASVKLSCKAPGYTFTSYWMHWVKQRPGQGLEWIGETNPSNSVTNYNEKFKSKATLTVDKSSSTAYMQLSSLTSEDSAVYYCTIGRGRGFAYWGQGTLVTVSA
VL: DIQMNQSPSSLSASLGDTITITCRASQNINFALSWCQQKPGNIPKLLIYKASNLHTGVPSRFSGSGSGTDFTLTISSLQPEDIATYYCLQGQSYPYTFGGGTKLEIK
With B17 the “Signal activation EC50 vs IGF11-16, PathHunter” value [5] was 9.5 ratio vs IGF11-16 and the “Signal activation Emax vs IGF11-16, PathHunter” value [5] was 1.5 ratio vs IGF11-16.
